Source: patent US20250197451A1, “USE OF BIOACTIVE POLYPEPTIDE SYNTHESIZED ON BASIS OF KDM2B SEQUENCE IN NEURAL DIFFERENTIATION AND REGENERATION AND REPAIR OF MESENCHYMAL STEM CELLS” (CAPITAL MEDICAL UNIVERSITY SCHOOL OF STOMATOLOGY, priority 2021, published 2025)

The binders below were run against biotin-labelled EZH2 protein (UniProt Q15910) (assay: KDM2B peptide array probed with biotin-EZH2 1 ug/ml, SA-HRP/ECL).
Chain of biotin-labelled EZH2 protein (Q15910 whole entry): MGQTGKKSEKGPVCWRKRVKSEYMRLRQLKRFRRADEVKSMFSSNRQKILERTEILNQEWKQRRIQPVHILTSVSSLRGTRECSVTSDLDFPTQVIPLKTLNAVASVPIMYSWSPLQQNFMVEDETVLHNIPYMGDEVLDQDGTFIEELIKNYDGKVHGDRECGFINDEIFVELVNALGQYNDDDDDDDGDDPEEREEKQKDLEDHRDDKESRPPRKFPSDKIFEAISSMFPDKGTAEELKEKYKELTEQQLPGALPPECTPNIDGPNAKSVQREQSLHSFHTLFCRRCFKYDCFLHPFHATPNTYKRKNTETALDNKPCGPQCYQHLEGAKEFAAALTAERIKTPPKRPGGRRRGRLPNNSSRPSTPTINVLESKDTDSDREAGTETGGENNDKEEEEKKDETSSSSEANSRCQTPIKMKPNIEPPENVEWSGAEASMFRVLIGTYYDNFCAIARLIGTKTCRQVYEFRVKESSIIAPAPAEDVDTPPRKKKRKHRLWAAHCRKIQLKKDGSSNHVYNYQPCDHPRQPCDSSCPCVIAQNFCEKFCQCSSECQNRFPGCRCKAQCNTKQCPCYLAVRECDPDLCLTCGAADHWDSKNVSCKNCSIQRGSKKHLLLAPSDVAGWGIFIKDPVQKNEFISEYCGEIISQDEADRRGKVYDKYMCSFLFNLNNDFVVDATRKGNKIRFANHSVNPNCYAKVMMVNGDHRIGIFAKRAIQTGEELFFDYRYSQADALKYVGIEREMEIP

Row | Intensity (%) | Binder
1 | 30.8% | CIMRQCIAPVLPHTA [peptide 130]
2 | 0.77% | LAVDYPKTPTGSPAT [peptide 98]

Further lines, the binder ahead of its results:

Row | Binder | Intensity (%)
3 | VLERYVYCVTQRSHL [peptide 74] | 0.25%
4 | QPKFRYPFYYEMCWY [peptide 71] | 0.57%
5 | IYEIEDRTRVQPKFR [peptide 69] | 0.15%
